These results are taken from patent US20240285757A1 (University of Pennsylvania, published 2024).

Assay [1] addresses human CD19 on Nalm6 leukemia cells (human) (UniProt P15391). Briefly: cell-based or functional assay.
In assay [2] the target is EGFR on U87 (U87-MG) human glioblastoma cells (human, UniProt P00533 25-1210). The assay can be described thus: cell-based or functional assay.

Sequence of human CD19 on Nalm6 leukemia cells (human) (P15391 20-556): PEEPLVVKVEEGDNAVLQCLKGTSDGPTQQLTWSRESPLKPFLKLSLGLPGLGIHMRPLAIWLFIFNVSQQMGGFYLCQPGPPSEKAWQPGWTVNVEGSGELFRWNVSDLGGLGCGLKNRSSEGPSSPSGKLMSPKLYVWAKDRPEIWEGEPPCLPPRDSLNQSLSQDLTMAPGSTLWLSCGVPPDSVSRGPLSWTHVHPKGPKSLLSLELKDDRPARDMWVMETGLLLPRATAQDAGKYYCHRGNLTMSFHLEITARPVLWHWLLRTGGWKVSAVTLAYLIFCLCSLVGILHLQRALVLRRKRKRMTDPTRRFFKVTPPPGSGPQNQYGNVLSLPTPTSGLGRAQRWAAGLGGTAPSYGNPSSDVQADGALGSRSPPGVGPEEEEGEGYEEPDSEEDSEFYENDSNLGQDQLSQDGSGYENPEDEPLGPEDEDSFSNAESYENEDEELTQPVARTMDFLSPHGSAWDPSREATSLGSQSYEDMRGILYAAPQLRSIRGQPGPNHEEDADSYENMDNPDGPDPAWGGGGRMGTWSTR

Regarding “CD19-specific, 4-1BBZ CAR containing the FMC63 scFv”, in assay [1], the CpNA functional activity in supernatant after 24 h co-culture at 10:1 E:T (cleavage-activated fluorescent NA substrate) turned out to be 4.9 fold and the CpNA functional activity in supernatant after 24 h co-culture with Nalm6 cells at 10:1 E:T is 19.5 mU/ml.

B1: 806 CAR (EGFR-specific, 4-1BBZ CAR containing an 806 scFv linked via a CD8alpha hinge and CD8a TM to (other)
VH: DVQLQESGPSLVKPSQSLSLTCTVTGYSITSDFAWNWIRQFPGNKLEWMGYISYSGNTRYNPSLKSRISITRDTSKNQFFLQLNSVTIEDTATYYCVTAGRGFPYWGQGTLVTVSA
VL: DILMTQSPSSMSVSLGDTVSITCHSSQDINSNIGWLQQRPGKSFKGLIYHGTNLDDEVPSRFSGSGSGADYSLTISSLESEDFADYYCVQYAQFPWTFGGGTKLEIKR
As for B1, in assay [2], the “CpNA levels/activity in supernatant after 24 h co-culture at 10:1 E:T (cleavage-activated fluorescent NA substrate)” value was found to be 2.3 fold.
